B1: HA-RNF111 wild type (HA-RNF111^WT) in RNF111 KO U2OS cells [not stated] / Arkadia-like 1 (ARKL1) [human (endogenous in U2OS)] (parent)
chain 1: MSQWTPEYNELYTLKVDMKSEIPSDAPKTQESLKGILLHPEPIGAAKSFPAGVEMINSKVGNEFSHLCDDSQKQEKEMNGNQQEQEKSLVVRKKRKSQQAGPSYVQNCVKENQGILGLRQHLGTPSDEDNDSSFSDCLSSPSSSLHFGDSDTVTSDEDKEVSVRHSQTILNAKSRSHSARSHKWPRTETESVSGLLMKRPCLHGSSLRRLPCRKRFVKNNSSQRTQKQKERILMQRKKREVLARRKYALLPSSSSSSENDLSSESSSSSSTEGEEDLFVSASENHQNNPAVPSGSIDEDVVVIEASSTPQVTANEEINVTSTDSEVEIVTVGESYRSRSTLGHSRSHWSQGSSSHASRPQEPRNRSRISTVIQPLRQNAAEVVDLTVDEDEPTVVPTTSARMESQATSASINNSNPSTSEQASDTASAVTSSQPSTVSETSATLTSNSTTGTSIGDDSRRTTSSAVTETGPPAMPRLPSCCPQHSPCGGSSQNHHALGHPHTSCFQQHGHHFQHHHHHHHTPHPAVPVSPSFSDPACPVERPPQVQAPCGANSSSGTSYHEQQALPVDLSNSGIRSHGSGSFHGASAFDPCCPVSSSRAAIFGHQAAAAAPSQPLSSIDGYGSSMVAQPQPQPPPQPSLSSCRHYMPPPYASLTRPLHHQASACPHSHGNPPPQTQPPPQVDYVIPHPVHAFHSQISSHATSHPVAPPPPTHLASTAAPIPQHLPPTHQPISHHIPATAPPAQRLHPHEVMQRMEVQRRRMMQHPTRAHERPPPHPHRMHPNYGHGHHIHVPQTMSSHPRQAPERSAWELGIEAGVTAATYTPGALHPHLAHYHAPPRLHHLQLGALPLMVPDMAGYPHIRYISSGLDGTSFRGPFRGNFEELIHLEERLGNVNRGASQGTIERCTYPHKYKKVTTDWFSQRKLHCKQDGEEGTEEDTEEKCTICLSILEEGEDVRRLPCMHLFHQVCVDQWLITNKKCPICRVDIEAQLPSES
chain 2: MKMEEAVGKVEELIESEAPPKASEQETAKEEDGSVELESQVQKDGVADSTVISSMPCLLMELRRDSSESQLASTESDKPTTGRVYESDSSNHCMLSPSSSGHLADSDTLSSAEENEPSQAETAVEGDPSGVSGATVGRKSRRSRSESETSTMAAKKNRQSSDKQNGRVAKVKGHRSQKHKERIRLLRQKREAAARKKYNLLQDSSTSDSDLTCDSSTSSSDDDEEVSGSSKTITAEIPDGPPVVAHYDMSDTNSDPEVVNVDNLLAAAVVQEHSNSVGGQDTGATWRTSGLLEELNAEAGHLDPGFLASDKTSAGNAPLNEEINIASSDSEVEIVGVQEHARCVHPRGGVIQSVSSWKHGSGTQYVSTRQTQSWTAVTPQQTWASPAEVVDLTLDEDSRRKYLL

Variants of: B1
Assay: proximity ligation assay (PLA)
Conditions: with Arkadia-like 1 (ARKL1) [human (endogenous in U2OS)]; RNF111 KO U2OS cells complemented with vector (n = 19), HA-RNF111WT (n = 18), HA-RNF111 K237/238R (n = 28); antibodies to HA and ARKL1; parent: 7.5; read off a plot

Row | response (PLA foci per cell) | Variant
1 | 3.2 | chain 1 K237R K238R
